Measurements as given in patent publication US20190060239A1, “Technology for the Preparation of Microparticles” (Ansun Biopharma, Inc., priority 2007, published 2019).

Columns and labels:
Assay type in all cases: physicochemical
[1] = Microsphere formation, size and appearance by light microscopy
Method: 4) DAS181+5 mM sodium citrate, pH 5.0+10% isopropanol; • Plastic microcentrifuge tubes containing the cocktails with ingredients as described in 1)-4) above were gradually cooled from: • (a) ambient temperature (about 25° C.) to 4° C. by placing the cocktails in a refrigerator, followed by: • (b) cooling to −20° C. by placing the resulting cocktail from (a) in a freezer, followed by: • (c) freezing to −80° C. by placing the resulting cocktail from b) in a freezer.
Freezing to −80° C. is carried out to remove ingredients from the cocktail other than the microspheres (e.g., solvent, etc.) by freeze-drying. Cocktail 4) was prepared in triplicate, two aliquots in plastic tubes and one in a glass tube. One aliquot (in a plastic tube) was cooled as described above, while the two other aliquots (one in a plastic tube and one in a glass tube) were subjected to snap cooling/freezing by dipping the tubes into liquid nitrogen.
Upon freezing, all tubes were placed into the lyophilizer and the volatiles (water and isopropanol) were removed by sublimation, leaving the dry pellets.
The dry pellets recovered from the cocktails treated as described above, were tested for the presence of microspheres.
(§1) DAS181 was purified and used to prepare microspheres as described above in Example 1 (see cocktail 4)), using a combination of DAS181 protein (10 mg/ml), citrate counterion (sodium citrate, 5 mM) and isopropanol organic solvent (10%, 20% or 30%). The resulting cocktail solutions were cooled from ambient temperature (about 25° C.) to 4° C., followed by cooling to −20° C., followed by freezing to −80° C., as described in Example 1. Upon freezing to −80° C., the tubes are placed in a lyophilizer and the volatiles (water and isopropanol) were removed by sublimation, leaving the dry powder containing microspheres.
as §1, with “protein (5 mg/ml or 10” for “protein (10”, “isopropanol (5%” for “isopropanol organic solvent (10%, 20%”, “or 20%).” for “or 30%).”, “tubes were” for “tubes are”
DAS181 was purified and used to prepare microspheres as described above in Example 1 (see cocktail 4)), using a combination of DAS181 protein (10 mg/ml), citrate counterion (sodium citrate; 2 mM, 3 mM or 6 mM) and isopropanol (20%). The cocktail solutions were mixed in glass vials and cooled from +20° C. to −40° C. at a freeze ramp of 1° C. per minute in a Millrock Lab Series lyophilizer. Volatiles (water and isopropanol) were removed by sublimation at 100 mTorr with primary drying at −30° C. for 12 hours and secondary drying at 30° C. for 3 hours, leaving the dry powder containing microspheres.
To a cocktail solution containing 5 mg/ml DAS181, 5 mM sodium citrate, and 20% isopropanol, was added a surfactant (3.5% w/w lecithin, 0.7% w/w Span-85® (sorbitan trioleate), or 3.5% w/w oleic acid).

[2] = as above; remark: listed apart in the source
[3] = Microsphere quality score by light microscopy (scoring system of Table 13)
Method: For each of the compounds listed in A-D above, and for DAS181, cocktail solutions containing 2 mg/ml of compound dissolved in an aqueous solvent and various counterions, antisolvents and pH, as listed below, were prepared in a 96-well microtiter plate (0.1 ml cocktail/well) at room temperature. Control solutions contained either solvent or antisolvent alone, with or without the counterion. Cocktails were cooled by placing in a freezer. The chilled plates were transferred onto pre-chilled (−45° C.) shelves of a Millrock Lab Series Lyophilizer, and the vacuum was applied. The frozen cocktail solutions were allowed to lyophilize for 16 hours.
The lyophilized powders from the bottoms of the wells were transferred onto glass slides and analyzed by light microscopy for appearance. The quality of the product microspheres was scored based on the uniformity of the microspheres, the absence of undesirable non-microsphere particles (glass-like crystalline forms), and the absence of aggregates.
Arginine was used as counterion and isopropanol was used as antisolvent. Concentrations of each of the cocktail components—the compound, the counterion and the antisolvent—were varied as shown below in Table 15, and the effect on microsphere quality assessed.
Experiments were performed to evaluate the effect of antisolvent and counterion concentration variation on the formation of microspheres. The peptides leuprolide and somatostatin, and the antibiotics vancomycin and tobramycin, were tested under a variety of conditions for forming microspheres. Samples were analyzed in 96-well plates as described in the previous Examples.
The experiments were performed using PGI2 and an analog of PGI2, Ciprostene, at a concentration of 2 mg/ml. Cocktail solutions were mixed at room temperature, then cooled by placing in a freezer. The chilled plates were transferred onto pre-chilled (−45° C.) shelves of a Millrock Lab Series Lyophilizer, and the vacuum was applied. The frozen cocktail solutions were allowed to lyophilize for 16 hours.
Because the resulting prostaglandin microspheres are hygroscopic, upon microsphere initiation, the humidity was maintained at low levels during the experiments, using a nitrogen gas tank attached to the backfill system on the lyophilizer. Each of the reaction tubes was flushed with N2. In addition, the backfill valve on the lyophilizer was left open to continually flush a low humidity atmosphere over the samples. The microscope used to visualize the resulting microspheres was contained within a plastic bag that was continually purged with dry N2. Sample tubes were placed under the bag to equilibrate for approximately 30 seconds, before opening and spreading onto the glass slide.
The compound/counterion/antisolvent conditions were as follows:
Experiments were performed with 200 μl of each of the above cocktail solutions in a 2 ml lyophilization bottle (first flash freeze condition), and 25 μl of each of the above cocktail solutions in a PCR tube (second flash freeze condition). The samples in the lyophilization bottles took approximately 15 seconds to freeze. The samples in the PCR tubes took approximately 3 seconds or less to freeze.
The cocktails in the 96-well plates were cooled by placing in a freezer. The chilled plates were transferred onto pre-chilled (−45° C.) shelves of a Millrock Lab Series Lyophilizer, and a vacuum was applied. The frozen cocktail solutions were allowed to lyophilize for 16 hours.
The lyophilized powders from the bottoms of the wells were transferred onto glass slides and analyzed by light microscopy for appearance.

B1: DAS181: fusion protein: heparin (GAG) binding domain of human amphiregulin fused to a catalytic domain of Actinomyces Viscosus sialidase (SEQ ID NO:17) (protein)
chain: MGDHPQATPAPAPDASTELPASMSQAQHLAANTATDNYRIPAITTAPNGDLLISYDERPKDNGNGGSDAPNPNHIVQRRSTDGGKTWSAPTYIHQGTETGKKVGYSDPSYVVDHQTGTIFNFHVKSYDQGWGGSRGGTDPENRGIIQAEVSTSTDNGWTWTHRTITADITKDKPWTARFAASGQGIQIQHGPHAGRLVQQYTIRTAGGAVQAVSVYSDDHGKTWQAGTPIGTGMDENKVVELSDGSLMLNSRASDGSGFRKVAHSTDGGQTWSEPVSDKNLPDSVDNAQIIRAFPNAAPDDPRAKVLLLSHSPNPRPWSRDRGTISMSCDDGASWTTSKVFHEPFVGYTTIAVQSDGSIGLLSEDAHNGADYGGIWYRNFTMNWLGEQCGQKPAKRKKKGGKNGKNRRNRKKKNP
modifications: DAS181
- size of microspheres ([1]; 5 mg/ml DAS181, 5 mM sodium citrate, 20% isopropanol): about 3 microns
- dispersivity of microspheres formed with surfactant vs without ([1]; 5 mg/ml DAS181, 5 mM sodium citrate, 20% isopropanol + 3.5% w/w lecithin, 0.7% w/w Span-85 or 3.5% w/w oleic acid): improved dispersivity
- size of microspheres ([1]; 10 mg/ml DAS181, 2 mM citrate, 20% isopropanol, +20°C to −40°C at 1°C per minute): 1 micron
- size of microspheres ([1]; 10 mg/ml DAS181, 3 mM citrate, 20% isopropanol, +20°C to −40°C at 1°C per minute): 3 microns
- size of microspheres ([1]; 10 mg/ml DAS181, 5 mM sodium citrate, 30% isopropanol, gradual cooling): 5-6 microns
- size of microspheres ([1]; 10 mg/ml DAS181, 6 mM citrate, 20% isopropanol, +20°C to −40°C at 1°C per minute): 5 microns
- size of microspheres ([2]; 5 mg/ml or 10 mg/ml DAS181, 5 mM sodium citrate, 5% isopropanol): about 1.5 micron
- appearance of dry pellet ([2]; cocktail 2): 10 mg/ml DAS181, 5 mM glycine pH 5.0, 10% isopropanol, gradual cooling): a mixture of glass-like crystals and agglomerates with only a few microspheres
- appearance of dry pellet ([2]; cocktail 4) (5 mM sodium citrate, 10% isopropanol) snap-frozen in liquid nitrogen in a glass tube): glass-like crystals and no microspheres
- appearance of dry pellet ([2]; cocktail 4) (5 mM sodium citrate, 10% isopropanol) snap-frozen in liquid nitrogen in a plastic tube): agglomerated microspheres
- appearance of dry pellet ([2]; cocktails 1) and 3): 10 mg/ml DAS181, 5 mM glycine or 5 mM sodium citrate pH 5.0, no organic solvent): no microspheres were observed
- appearance of microspheres (microscopy and cascade impaction) ([2]; continuous mode: 10 mg/ml DAS181, 20% isopropanol, 2 mM sodium sulfate, heat exchanger, cooled from about 25°C to about −12°C): uniform microspheres with minimal aggregation and good dispersivity
- appearance after lyophilization ([2]; same cocktail not chilled, poured directly into liquid nitrogen): no microspheres were observed
- Microsphere Quality ([3]; 2 mM Na-Glutamate, 15% n-propanol, pH 4.0): 6/7
- Microsphere Quality ([3]; 2 mM Na-citrate, 15% isopropanol, pH 4.0): 5/6
- Microsphere Quality ([3]; 2 mM Na-citrate, 15% n-propanol, pH 5.0): 8/9
